Assay results published in a protein production outcome set (Wang et al. 2014).

Assay: label from the status in PepcDB records

| Sequence | protein production |
| --- | --- |
| MSFVPSLPNLGRFWTAANALSLCRLALVVPITVFLWRDGPLGWLLGLVILVILTDWFDGRIARWTHSVSDWGKVIDPVADKFAAIMTVTALTFRPADPHLPLWFFGLVVGRDVAILLGGMAIARRSGQIVMSAWAGKAASLWLALTILSVILRADPPVFRVCLWMATGLFVFSFLLYVVRYLQATRNAEGATPDSVPQGP | failed |
| MLTTRLLISQRGRIAMKQVHLLTPVAGQLVPLESVHDPVFSQGMMGQGFGIEPTDGQVVAPISGKVTMVAASLHAIGFTGNNGLEVLVHLGIDTVELADRPPFKVNVQVGDTVEAGEKVAMMDLAAITSANKDTTVIMAVTNTADMVTKLTPELGEVRAGVVGAVVELKEHVAEASVVKGKGGKYDELATQIIAQVGGPVNVKSVIHCITRVRFYLKDEGQANDEAIRNLKGVIDVAKAGGQYQVVIGPAVTDVYDAIVGQLGAGFGDADASAVAMEKEANRLAWQKMTPWQKVKHGFSSLIGVITGSMIPVIGLLAASGILKGILSLLKNFNLVSATTPTYVIINAMGDSVFYFLPIFVGFTAAKKLGADPVIMGIIGGVLTYPAIVGMATTGKVTGHLLGMAINANFFGIPVHVASYTYSIFPMIAGAWLASKLEPWLKRVIPTVLRMIFVPLFEVVIISGAIIIILGPIITALSGALAAGIVAIYKLSPAISGLIIGGFYQVLVIFGLHWAIIPIVVNDITTTGHSYLNAIVSATMVAQGGAVLAIALKSKFANIKELAWPATISAFCGVTEPAMYGINLKYGRAFITASIGGAVGGFLTGLFNVNMWGFAGSLIGVTSFINPKGLDFSFYGFLIASAIDLIVAFTLTWMFGFSDNDVKNVKKAPEKKHLGQQVAN | failed |
| MRNSKSLKLTIMGIGIALNIIGAFIALNLRLPIYLDSIGTIMVGFVLGPVYGMATGVLGSVVSGITFDIYSLYFAPVQIFTGFFAGYFYEKGLMKGKKLFLSVFVMTLFVSFTGACLTAYIFGGITSSGSSYIIVILNNLGVNPVVSAFITQFLTDYCDKLVAVLIMLQVVVRLPKNILLRVQNN | failed |
| GSSGSSGMASTFTSDTLPADHKAAIRQMKHALRAQLGDVQQIFNQLSDDIATRVAEINALKAQGDAVWPVLSYADIKAGHVTAEQREQIKRRGCAVIKGHFPREQALGWDQSMLDYLDRNRFDEVYKGPGDNFFGTLSASRPEIYPIYWSQAQMQARQSEEMANAQSFLNRLWTFESDGKQWFNPDVSVIYPDRIRRRPPGTTSKGLGAHTDSGALERWLLPAYQRVFANVFNGNLAQYDPWHAAHRTEVEEYTVDNTTKCSVFRTFQGWTALSDMLPGQGLLHVVPIPEAMAYVLLRPLLDDVPEDELCGVAPGRVLPVSEQWHPLLIEALTSIPKLEAGDSVWWHCDVIHSVAPVENQQGWGNVMYIPAAPMCEKNLAYAHKVKAALEKGASPGDFPREDYETNWEGRFTLADLNIHGKRALGMDV | not failed |
| HHIAYTEWGIFEPELPTVICVHGYTRNSRDFDELANYLSSKGRHVFCPDIAGRGDSSWFKNPRYYNFTQYVKDMTVLMARTNAHQIDWIGTSMGGIIGMILAAMPNSPINKLVLNDIGPQIPIHGLRRIAKYAGKAPDFKSLEEAKQHFKASYADFGITNEKQWDIFTKNSVEQRGPNLYVTKMDPAIKKSKSILQIISEFFRHPHKALEGIFYDINLWSIWKQIKCPVIVIHGVNSDILTSEIITQMKKTHALTEVYEVENAGHAPALLDLTVHQRIEDWLATH | failed |
| MIEIRKASTHDATAIQTLLTQLGYPQSLEFIEKKIRLFESDERQFIFVADIDHKLAGFLSLTMIPQIALEGDFARIAYVCVDQQFRGKRIGQTLVAYAEQIAKSWGCNRMELHSGDHRKQAHEFYLGQNYEDAPKYFRKFL | failed |
| MSALRILARFVSTRTLRIRPILEIPARCKYTQHQGVKGIRNRKSFFEAQIQAGQQGEEDADLERTANSDLADMRFLDDRAYDEVAGGAMRITRDIASSQQVLILQPYVKWAAKRQNAPVDVRPEDQLAEATALIHSLPNWQVARALKVPLESLEKKTLFGSGKLVELKELVAELRQERHLTCLFVSKGTLSFAQKRFLEAEFRLPVMDRYSVVIQILRLHATSAEAKLQVAMAELPYIWAQAKDASVTQTRRQGYALTDLQKEILRTRERKLRAELDRVRRQRQLLRQKRKQQNYPIVAVVGYTNAGKTSLIKALTVEDALQPRNQLFATLDVTAHAGCLPCNLEVIYMDTVGFMSDLPTGLFECFVATLEDAMLADVIVHVQDLSHPCHAAQRSHVEATLRSLAFNVAGGDSTASQLPPIINVYNKCDLVSQEAQSSADPVHHISARAQTGLEPLLDDIEQQILTATGRRKLQMRVPSGGPEMAWLYKNAAVVETTADAENPERLMMHVVISQRTLDQFKRQFCR | failed |
| MKQNQYLFLLFTLIVLTGCGGTQKKLTEYVNPFLGTATLWEPEDLGYTRKIKSRTWGAETYPGATLPNAMVQLSPVTQFRSGAGYQYEDTVIYGFSHTAKGHWNLLHVPMLPVVGTIAPGNYCSGFSHEKESAHPGYYQVYLERYKVNAELTSTLRCAYHKYTFAKGDDKSLLVDIRRSNNDVRDWKIEKVDDNTFTGYQDGDGKIYFYAKTNYKIGQVEMVKDDKHEVAVLRFIDSKGVEPLEVKAGFSFVSIENAQMNLKAEMLNKSFAQVAEEADAAWEALLSKIQVAGGTEREKRLFYSTFFHAFKWPALRSDVNHEYTDVRGEVVNNGFHYYTDPSFWDDYRNKLVLIGMISPDVTTDIIRSIIDKGEKRDGYMPTFFHGDHASTFISGSWLRGLHDFDLERAYKLILKNATVPGKGGRRYLDEYMERGWIAEKDTVNVPTWDEYKGAVTKTQEYAYDDYAVALVAKELGDEANYKLMMERSNNYKTLFDPSTGFWRGKIDDGSWIQDFDPYYPYYQYMYREANAWNALFFAPHDPEGMIKLYPSKEAVEAKLDSLFSEPWRGYEAHNLTGFIGNYCHGNQPGHSIPYTYYFIDKQEKAQCILDSLMNHYYDMGADKLAYAGMDDAGEMSSWYVLNAIGLYTYSPADPEYIVTVPLFDKVTFNLNGRPFTIVKKGSGKKIIDITYDGKKIDGYFITHDQLREGKELVITTE | failed |
| MRATACWFVSGLVTFKSENKTRRLVSATHNSRPSMSRVRSWILVVGVLVGAVGGCAEPQDGRGPATADSIAATAPGTDVVGAPLDASGDTLRMGRPTPVTTRPGYDNQPAFLPDGSGLVWTAIHDGQADVYRKIEDEGGPAPVTDTPESEFSPTPRPGGALTLVRVEADGRQRLWRYRADGTPDAPVLPDADSVGYHAWLDSSRVALFVLGAPPTLHVANVKSGTDTVVARRIGRSLQSVPGRADVSFVQVGPDSSVAIHRLDGASLTTRRLTEAPTNAPTGDHAWTPGGHLLMTTEDSLVAWRRGRADWRPVAALDTMDVSRLAVSPSGDRLAMVAAE | failed |
| GRKVGFRKGPRPGAGPREGGFRNDGPRGEGGYRNDGPRGEGGYRNDGPRGEGPRNEGPRGEGYRNDGPRGEGFRGPRFNNGPSNGYENRQDNNRFGEKRRSAQKPLKVDDEAQFPTLC | failed |
| MTNPEATDKEGKNYALFIGDTVLVGEQSPASVMTPSKKKIKNVGIFIKDDSDEEDVDDKKTAKEDQGTEILGRSKRNAVLESKLRNEINTEEKRKEHQRELAQQLNERAKDRLARQGNSKEVEKVRKNTVSYKSISQMPREPEVKELKLYVDKKYETV | failed |
| MEKNRRGIQSVELGSRVLQALAQFGRPAGLTELAQECDMPPGKVHPYLVSFMKVGFVARDPASGLYELGHLALELGLAKLHRLDPVREASQAIADLAAETGHGTGLVVWGNLGPTLIRLEEPAHPLHVNLRIGTVMSLVHTATGRLFAAYLPAKVVSRVLEADPMGVHFGSRHQSRPAQEDYERQLSEIRSRGISRTLGSPIPGIDAFCAPVFDSMGHIAAGLLVMGPSATFDSDWDGQIATRLHACANDISRKLGYIDTPASPRAAR | failed |
| MNTTLFRWPVRVYYEDTDAGGVVYHASYVAFYERARTEMLRHHHFSQQALMAERVAFVVRKMTVEYYAPARLDDMLEIQTEITSMRGTSLVFTQRIVNAENTLLNEAEVLVVCVDPLKMKPRALPKSIVAEFKQ | not failed |
| MEPNKDDNVSLAATAQISAPPVLQDASSLPGFSAIPPVVPPSFPPPMAPIPMMPHPPVARPPTFRPPVSQNGGVKTSDSDSESDDEHIEISEESKQVRERQEKALQDLLVKRRAAAMAVPTNDKAVRDRLRRLGEPITLFGEQEMERRARLTQLLTRYDINGQLDKLVKDHEEDVTPKEEVDDEVLEYPFFTEGPKELREARIEIAKFSVKRAAVRIQRAKRRRDDPDEDMDAETKWALKHAKHMALDCSNFGDDRPLTGCSFSRDGKILATCSLSGVTKLWEMPQVTNTIAVLKDHKERATDVVFSPVDDCLATASADRTAKLWKTDGTLLQTFEGHLDRLARVAFHPSGKYLGTTSYDKTWRLWDINTGAELLLQEGHSRSVYGIAFQQDGALAASCGLDSLARVWDLRTGRSILVFQGHIKPVFSVNFSPNGYHLASGGEDNQCRIWDLRMRKSLYIIPAHANLVSQVKYEPQEGYFLATASYDMKVNIWSGRDFSLVKSLAGHESKVASLDITADSSCIATVSHDRTIKLWTSSGNDDEDEEKETMDIDL | failed |
| MSVGIDSLDNDHKKLIAILAQLMSAKNEKLGQDDIDVIFERLEGYCLSHFAREEALLAKIDYKQLEAHKLSHQAFIKKIPQLKEQWFAKVTESEAVKDKIILFLQQWLIKHILEEDLDYVPAIHCFQEFSRYEKDKKAKHPWLRFFSIKLSHCLILSHRVLITTLLPVAAVLLLCFFILKDNYQRYDSISKVLGLNSVIEQVNGISHSLQAERGLSTGYTSSNYRSFAKQLRQRRKSTDAKIQYFLWLLEQSANQEIKVSVSRYMTNFQEIVANLSRHRMHLDQKIVGFEETYHAYTQLIGQLLSVSDHLVHIEIGSSHANDISAINAILRYKEFMGQIRAIGMKMAENHQENIYGNVEVSLLIGKQLNTLLIFKNAANSAQKSICGHYCDAFALRQHLESSYLETMQFEDKDVRAARWFKVMSAKVDNLNSVVQRLINEFDGQIYIESQKLKKEGYLIILAMLIFLLVAIFFALVLNYSIISPVRKLTYALNDMSEGQNNIHFNHIDSKDEIGSMQLAFEKLRRKLLQGDVYKATVSQQQKEIKYRKSQQDHFQQLALTDALTGAVNRHHFNEVLDQEIANVNNHGSPLSIMLLDIDHFKSVNDRYGHGVGDEVLVMFYQTCVEAVRSSDVVARIGGEEFVIIMPNTQLVNAQKFAERLRQKIAKLELNIANNQISVTVSIGVSQWQSEYFTNAETFVAHADKSLYQAKNSGRNKVVVAQQ | failed |
| MRAMVSRLNSAVSRLFLFAFVAVMPTLVQAQSVNEGQSVRALTTDSSGALLVLRQSGLFALDSQNTTEIPLPPSDSGAQPRSMAKGGDESLYLAGPGLGIWRYDEASKRWQSLNDTLPDLGVTAIAAHATQPDTLYAYLGDGGMFRSRDDGAEWVKVDNGPREPVQAFLHSDMPGSMESGWLFAGTTRGVARSMDCFCFWGDAGELRGTVSAIDYDPWAPENVYAVIEGELHRSSDGGETWAGLEIPQAVTALTFSPTERLVVGTENGELLSQNASGEWVPVYE | failed |
| MPDSPLPLYHKVYLLLKQRLQSGGFALNAAMPGENALAAEYGVSRLTIRRSLEALESEGLIERRQGRGTFAAEGAILSAPQHSADIDTLMAHLARMGMHTQVNLLELDTVPATPQVAAQLELPAGAPVQRAVRVRSHQGLPFSYLVTYVPGEIGQRIRREDLGAKPLLAIFRDLGVRVARAQQSISAVLAEPGTAGALDVPVGSALLSLQRLVRDDAGRPVEWLHALYRPDRYEYRLDMQAHDTPGQPTWLPAGAPRRA | failed |
| MGQTAFVVKTESYRLLWDCITYLDETTITKIKELGGLDAIALSHPHYYSTQVEWAETFDVPIYIHEDDKEWVMRPSSRIIYWSGESLQLADGITVHRLGGHFSGGSVLHWEEGNDGKGILLTGDIIQVVADERWVSFMYSYPNLIPLPARKVEEMVNRVKPLQFNRLYNAFHRVVKLEHHHHHH | not failed |
| MAVRFASLGSGSDGNALLVESTDGTTSTRILLDCGFGIRETVRRLERLGCAPASLDAILVTHEHGDHIGSAYAFAAKYSVPVWTSHGTYRATASLRGADRAAVRFCRADDAFSIGDLRILPYTVPHDAREPLQFIFDDGARRLGVLTDAGMSTEYLCGHLTGLHAFVLECNHDREMLANSAYPWSLKQRIGGDFGHLANDIAAAILARVRHDGLHTVVAAHLSKQNNTPELAAAAIASALGVPAGDVPIADQEAGLGWQAV | failed |
